Data published in FireProtDB (doi:10.1002/pro.5560061014).

Settings: Bacillus amyloliquefaciens, pH 7.4, Thermal, DSC, Sodium phosphate 50 mM, reversible: yes, whole UniProt chain shown

B1: Barstar wild type, P11540 (protein)
chain: MKKAVINGEQIRSISDLHQTLKKELALPEYYGENLDALWDCLTGWVEYPLVLEWRQFEQSKQLTENGAESVLQVFREAKAEGCDITIILS
heat capacity change of unfolding (25 °C): 1.27 kcal/mol/K
unfolding free energy (25 °C): 5.62 kcal/mol
Tm: 72.8 °C
heat capacity change of unfolding: 1.27 kcal/mol/K
unfolding enthalpy (calorimetric): 72.5 kcal/mol
